Assay results: patent US20060228349A1 (published 2006)

Legend:
[1] = biological target: T1, amyloid beta (1-40) peptide; experiment: solution equilibrium titration, free IgG by ELISA, GraFit; SE 5.05
T1 construct: Used as monomer-like control; also called Aβ1-40; monomer preparation

Aβ1-20 peptide = biological target: T2, Aβ1-20 peptide; experiment: solution equilibrium titration, free IgG by ELISA, GraFit; SE 24.41
T2 peptide: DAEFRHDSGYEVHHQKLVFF

biotin-Aβ1-20 = biological target: T3, biotin-Aβ1-20 (biotin (position not given)); experiment: BIACORE, biotin-Aβ1-20 as antigen; column IgG1#1
T3 peptide: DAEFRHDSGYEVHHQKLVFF

[2] = biological target: T4, Aβ-derived diffusible ligands (synthetic ADDLs), soluble oligomers of amyloid β1-42; experiment: solution equilibrium titration, free IgG by ELISA, GraFit; SE 0.09
T4 construct: Oligomeric preparation of synthetic Aβ1-42 in DMSO/F12 (monomer, trimer, tetramer, 12-24mer on SDS-PAGE); number of copies not fixed; also called soluble Aβ oligomers

[3] = biological target: T5, Biotinylated ADDL preparations (bADDLs) (N-terminal biotin); experiment: BIACORE, bADDL as antigen; column IgG1#1 (row shifted one column to the left)
T5 construct: Oligomer, number of copies not fixed; also called biotinylated ADDL antigen; high molecular weight 10% bADDL

[4] = biological target: T6, ADDL fibril preparation (Aβ1-42 fibrils); experiment: solution equilibrium titration, free IgG by ELISA, GraFit; SE 0.47
T6 construct: Fibrillar assembly; number of copies not fixed

Aβ12-28 peptide = biological target: T7, Aβ12-28 peptide; experiment: competition dot blot with peptides
T7 peptide: VHHQKLVFFAEDVGSNK

Aβ1-12 peptide = biological target: T8, Aβ1-12 peptide; experiment: competition dot blot with peptides
T8 peptide: DAEFRHDSGYEV

B1: murine anti-ADDL monoclonal antibody 20C2 (antibody, mouse IgG1, V domains shown)
VH: QVTLKESGPGILKPSQTLSLTCSLSGFSLSTSGMGVGWFRQPSGKGLEWLAHIWWDDDKSYNPSLKSRLTISKYTSRNQVFLTITSVDTADTATYYCARRQLGLRSIDAMDYWGQGTSVTVSS
VL: DVLMTQTPLSLPVSLGDQASISCRSSQSILHSNGNTYLEWYLQKPGQSPKLLIYKVSNRFSGVPDRFSGSGSGTDFTLKISRVEAEDLGVYYCFQGSLVPLTFGAGTKLELK
notes: also called Mouse-20C2
For B1, the Kd [1] was 30.5 nM, the Kd (Aβ1-20 peptide) was 71.3 nM and the Kd (biotin-Aβ1-20) was 3.4 nM. The Kd [2] was 0.92 nM, the Kd [3] was 4.1 nM and the Kd [4] was 3.62 nM. B1: no binding (tested: 200 pmol peptide in 200 µL) (Aβ12-28 peptide); no binding (tested: 200 pmol peptide in 200 µL) (Aβ1-12 peptide).
